Trimeric HA Binding RLU, Trimeric HA Binding: RLU and OD450 data for three molecules are collected here from patent publication US20120207760A1.

What all share (conditions): remark: other sources report otherwise
The target of assay [1] is T1, recombinant homotrimeric HA, A/California/4/09 H1N1 (Influenza A virus A/California/4/09 (H1N1)). As to the kind of experiment: trimeric HA microarray, transfection set 5.
The target in assay [2] is T2, recombinant homotrimeric HA, A/Indonesia/5/05 H5N1 (Influenza A virus A/Indonesia/5/05 (H5N1)). Description: trimeric HA microarray, transfection set 5.
Assay [3] addresses T3, recombinant homotrimeric HA, A/Japan/305/57 H2N2 (Influenza A virus A/Japan/305/57 (H2N2)). Description: trimeric HA microarray, transfection set 5.
The target in assay [4] is T4, recombinant homotrimeric HA, A/Solomon Islands/3/06 H1N1 (Influenza A virus A/Solomon Islands/3/06 (H1N1)). Description: trimeric HA microarray, transfection set 5.
Assay [5] addresses T5, recombinant homotrimeric HA, A/South Carolina/1/18 H1N1 (Influenza A virus A/South Carolina/1/18 (H1N1)). As to the kind of experiment: trimeric HA microarray, transfection set 5.
In assay [6] the target is T6, recombinant homotrimeric HA, A/Wisconsin/67/05 H3N2 (Influenza A virus A/Wisconsin/67/05 (H3N2)). Description: trimeric HA microarray, transfection set 5.
The target in assay [7] is recombinant soluble homotrimeric HA of A/Netherlands/219/03 (H7N7) (Influenza A virus A/Netherlands/219/03 (H7N7)). Description: microarray, BCC supernatant IgG, trimeric HA.
Assay [8] has as its target T7, recombinant homotrimeric HA, A/Vietnam/1203/04 H5N1 (Influenza A virus A/Vietnam/1203/04 (H5N1)). Description: trimeric HA microarray, transfection set 5.
For assay [9], the target named is recombinant soluble homotrimeric HA of A/chicken/Vietnam/NCVD-016/08 (H5N1) (Influenza A virus A/chicken/Vietnam/NCVD-016/08 (H5N1)). Description: microarray, BCC supernatant IgG, trimeric HA.
In assay [10] the target is recombinant soluble homotrimeric HA of A/northern shoveler/California/HKWF115/07 (Influenza A virus A/northern shoveler/California/HKWF115/2007). As to the kind of experiment: microarray, BCC supernatant IgG, trimeric HA.
Assay [11] addresses hemagglutinin (HA) of influenza A/Japan/305/57 H2N2 (Influenza A virus A/Japan/305/1957 (H2N2)), P03451. As to the kind of experiment: ELISA, inactivated whole virions coated; transfection supernatant set 5.
The target in assay [12] is T1, recombinant homotrimeric HA, …. Description: trimeric HA microarray, transfection set 3.
Assay [13] concerns the target recombinant homotrimeric HA, A/Egypt/3300-NAMRU3/08 H5N1 (Influenza A virus A/Egypt/3300-NAMRU3/08 (H5N1)). As to the kind of experiment: trimeric HA microarray, transfection set 3.
Assay [14] addresses recombinant homotrimeric HA, A/Hong Kong/1073/99 H9N2 (Influenza A virus A/Hong Kong/1073/99 (H9N2)). Description: trimeric HA microarray, transfection set 3.
In assay [15] the target is recombinant homotrimeric HA, A/Hong Kong/2108/03 H9N2 (Influenza A virus A/Hong Kong/2108/03 (H9N2)). Description: trimeric HA microarray, transfection set 3.
Assay [16] addresses T2, recombinant homotrimeric HA, …. Description: trimeric HA microarray, transfection set 3.
For assay [17], the target named is T3, recombinant homotrimeric HA, …. Description: trimeric HA microarray, transfection set 3.
Assay [18] has as its target T4, recombinant homotrimeric HA, A/Solomon …. As to the kind of experiment: trimeric HA microarray, transfection set 3.
For assay [19], the target named is T5, recombinant homotrimeric HA, A/South …. As to the kind of experiment: trimeric HA microarray, transfection set 3.
Assay [20] concerns the target T7, recombinant homotrimeric HA, …. As to the kind of experiment: trimeric HA microarray, transfection set 3.
Assay [21] deals with T6, recombinant homotrimeric HA, …. Description: trimeric HA microarray, transfection set 3.
In assay [22] the target is recombinant homotrimeric HA, A/chicken/Vietnam/NCVD-016/08 H5N1 (Influenza A virus A/chicken/Vietnam/NCVD-016/08 (H5N1)). As to the kind of experiment: trimeric HA microarray, transfection set 3.
Assay [23] concerns the target recombinant homotrimeric HA, A/common magpie/Hong Kong/5052/07 H5N1 (Influenza A virus A/common magpie/Hong Kong/5052/07 (H5N1)). Description: trimeric HA microarray, transfection set 3.
Assay [24] addresses recombinant homotrimeric HA, A/duck/Yangzhou/02/05 H8N4 (Influenza A virus A/duck/Yangzhou/02/2005 (H8N4)). As to the kind of experiment: trimeric HA microarray, transfection set 3.
For assay [25], the target named is recombinant homotrimeric HA, A/northern shoveler/California/HKWF115/07 (Influenza A virus A/northern shoveler/California/HKWF115/2007 (H6N1)). As to the kind of experiment: trimeric HA microarray, transfection set 3.
Assay [26] has as its target recombinant homotrimeric HA, A/swine/Ontario/01911-2/99 H4N6 (Influenza A virus A/swine/Ontario/01911-2/99 (H4N6)). As to the kind of experiment: trimeric HA microarray, transfection set 3.
Assay [27] has as its target recombinant soluble homotrimeric HA of A/Anhui/1/05 (H5N1) (Influenza A virus A/Anhui/1/05 (H5N1)). Description: microarray, BCC supernatant IgG, trimeric HA.
The target in assay [28] is recombinant soluble homotrimeric HA of A/California/4/09 (H1N1) (Influenza A virus A/California/4/09 (H1N1)). Description: microarray, BCC supernatant IgG, trimeric HA.
Assay [29] concerns the target recombinant soluble homotrimeric HA of A/Egypt/3300-NAMRU3/08 (H5N1) (Influenza A virus A/Egypt/3300-NAMRU3/08 (H5N1)). As to the kind of experiment: microarray, BCC supernatant IgG, trimeric HA.
Assay [30] concerns the target recombinant soluble homotrimeric HA of A/Hong Kong/2108/03 (H9N2) (Influenza A virus A/Hong Kong/2108/03 (H9N2)). Description: microarray, BCC supernatant IgG, trimeric HA.
For assay [31], the target named is recombinant soluble homotrimeric HA of A/Indonesia/5/05 (H5N1) (Influenza A virus A/Indonesia/5/05 (H5N1)). Description: microarray, BCC supernatant IgG, trimeric HA.
The target in assay [32] is recombinant soluble homotrimeric HA of A/Japan/305/57 (H2N2) (Influenza A virus A/Japan/305/57 (H2N2)). Description: microarray, BCC supernatant IgG, trimeric HA.
For assay [33], the target named is recombinant soluble homotrimeric HA of A/Solomon Islands/3/06 (H1N1) (Influenza A virus A/Solomon Islands/3/06 (H1N1)). Description: microarray, BCC supernatant IgG, trimeric HA.
The target in assay [34] is recombinant soluble homotrimeric HA of A/Vietnam/1203/04 (H5N1) (Influenza A virus A/Vietnam/1203/04 (H5N1)). As to the kind of experiment: microarray, BCC supernatant IgG, trimeric HA.
Assay [35] addresses recombinant soluble homotrimeric HA of A/Wisconsin/67/05 (H3N2) (Influenza A virus A/Wisconsin/67/05 (H3N2)). Description: microarray, BCC supernatant IgG, trimeric HA.
The target of assay [36] is recombinant soluble homotrimeric HA of A/duck/Yangzhou/02/05 (H8N4) (Influenza A virus A/duck/Yangzhou/02/2005 (H8N4)). As to the kind of experiment: microarray, BCC supernatant IgG, trimeric HA.
Assay [37] deals with recombinant soluble homotrimeric HA of A/swine/Ontario/01911-2/99 (H4N6) (Influenza A virus A/swine/Ontario/01911-2/99 (H4N6)). As to the kind of experiment: microarray, BCC supernatant IgG, trimeric HA.

B1: TCN-538 (3206_O17) (antibody, V domains shown)
VH: QITLKESGPTLVKPTQTLTLTCVFSGFSLSITGVRVGWIRQPPGKALEWLALISWDDEKHYSPSLQSRLTITKDTSKNQVVLTMTNLDPVDTATYYCARSTDRGHVLRYFGWMLPGDAFDVWGQGTMVTVSS
VL: DIVMTQSPDFLPVSLGERATINCKSSQRVLYSSNNKNYLAWYQLKPGQPPKLIIYWASTRESGVPDRFSGSGSGTEFTLTISSLQAEDVAVYYCQQYYSRPYTFGQGTKLEIK
Regarding B1, the Trimeric HA Binding RLU in [1] turned out to be 16000 RLU; in assay [2], 13700 RLU; in assay [3], 6620 RLU; in [4] it was 1960 RLU; in assay [5], 8430 RLU; in assay [6], 2070 RLU. Moreover, the Trimeric HA Binding: RLU in [7] is 6530 RLU.

B2: TCN-551 (5243_D01) (antibody, V domains shown)
VH: EVQLVQSGSEVKKPGESLKISCKGSGYSFSNYWIGWVRHMPGKGLEWMGIIYPGDSDTRYSPSFQGQVTMSADKSSSTVYLQWSSLKASDTAIYYCARRGGHSFGYGSGGDTHSEFDSWGQGTLVTVSS
VL: QSVLTQSPSVSAAPGQKVTISCSGSDSNIGDYFVCWYQHLPGKPPQLLIYENNKRPSGIPDRFSGSKSGTSATLGITGIQTGDEADYYCATWDGSLSAWVFGGGTKLTVL
Turning to B2, the Trimeric HA Binding RLU stood at 46100 RLU in [1]; 25200 RLU in [3]; 43500 RLU in assay [4]; 4340 RLU in [5]; 41900 RLU in assay [8]; 936 RLU in assay [6]. Moreover, the Trimeric HA Binding: RLU in assay [9] was found to be 42300 RLU; in assay [10], 52500 RLU. This molecule displayed an OD450 in [11] of 0.1 OD450.

B3: TCN-533 (5256_A17) (antibody, V domains shown)
VH: QVQLVQSGADVKKPGSSVTVSCKASGGSFSNYGINWVRQAPGQGLEWMGGIIPLINAPNYAPKFQGRVTITADMFSNIVSLQLTSLRTDDTAVYYCARRKMTTAIDYWGQGTLVTVSS
VL: QPVLSQPPSASASLGASVTLTCTLSSGFDNYQVAWYQQRPGKGPRFVMRVGNGGNVASKGDGIPDRFSVSGSGLNRYLTIKNIQEDDESDYYCGADHGSGNNFVSPYVFGGGTKLTVL
Regarding B3, the Trimeric HA Binding RLU was determined as 6880 RLU in assay [12]; 18600 RLU in assay [13]; 23800 RLU in assay [14]; 33 RLU in assay [15]; 28300 RLU in assay [16]; 18600 RLU in [17]. The Trimeric HA Binding RLU in [18] was determined as 15500 RLU; in assay [19], 16400 RLU; in assay [20] it was 11700 RLU; in assay [21], 16100 RLU; in assay [22], 24600 RLU; in assay [23], 25200 RLU. The Trimeric HA Binding RLU is 711 RLU in [24], 7810 RLU in assay [25] and 180 RLU in assay [26]. Also, the Trimeric HA Binding: RLU in assay [27] worked out at 8060 RLU; in assay [28], 29300 RLU; in assay [29], 34300 RLU; in [30], 172 RLU; in assay [31], 44100 RLU; in assay [32] it was 10800 RLU. Also, the Trimeric HA Binding: RLU in [33] is 39200 RLU; in [34] it was 5680 RLU; in [35] it was 13800 RLU; in assay [9], 47700 RLU; in assay [36] it was 24700 RLU; in assay [10] it was 41400 RLU. In addition, the Trimeric HA Binding: RLU in [37] was 1580 RLU.
